According to paper PMC3538687, “Detection of Cyclic Diguanylate G-Octaplex Assembly and Interaction with Proteins”:

Key:
[1] = molecular target: T1, HIV-1 reverse transcriptase (HIV RT) (HIV-1 (HXB2 strain), UniProt P04585;P04585 588-1147;588-1027); experiment: competition (DRaCALA); conditions: protein: commercial; copies: 1;1
[2] = molecular target: T1, HIV-1 reverse transcriptase (HIV RT); experiment: competition (DRaCALA); unlabeled PF1 vs 5 nM 32P-PF1; 960 nM RT; conditions: protein: commercial; copies: 1;1
[3] = molecular target: Thrombin protease (UniProt P00734;P00734 328-363;364-622); experiment: DRaCALA; 8 µM thrombin; DRaCALA on dry nitrocellulose, 10 min at room temperature; binding buffer and pH not given in the material. cdiGMP G8/M/D binding (a cyclic dinucleotide ligand)

Row | Binder | binding result [1] | further results
1 | CGCCTGACCCTTCAGGCGTTGGGTGGGTGGGTGGG (structured_DNA) [S4] | binds | 
2 | TAATACCCCCCCTTCGGTGCAAAGCACCGAAGGGGGGG (structured_DNA) [38 NT SELEX] | binds | 
3 | AGGAAGGCTTTAGGTCTGAGATCTCGGAAT (structured_DNA) [PF1] |  | IC50 [2]: 4 µM
4 | GGTTGGTGTGGTTGG (structured_DNA) [TBA25] |  | binding result [3]: binds
